Test results as given in patent CN115703835A (BOAOXIN BIOTECHNOLOGY NANJING CO LTD, dated 2023).

Columns and labels:
人CRR9 (表面表达人CRR9的A549细胞) = target: T1, 人CRR9 (表面表达人CRR9的A549细胞) (human, UniProt Q96KA5 1-538); assay: flow cytometry on A549 cells
T1 construct: whole, on cells; CRR9 as expressed by A549 cells; also called CLPTM1L; 顺铂耐药相关蛋白9
T1 sequence (looked up): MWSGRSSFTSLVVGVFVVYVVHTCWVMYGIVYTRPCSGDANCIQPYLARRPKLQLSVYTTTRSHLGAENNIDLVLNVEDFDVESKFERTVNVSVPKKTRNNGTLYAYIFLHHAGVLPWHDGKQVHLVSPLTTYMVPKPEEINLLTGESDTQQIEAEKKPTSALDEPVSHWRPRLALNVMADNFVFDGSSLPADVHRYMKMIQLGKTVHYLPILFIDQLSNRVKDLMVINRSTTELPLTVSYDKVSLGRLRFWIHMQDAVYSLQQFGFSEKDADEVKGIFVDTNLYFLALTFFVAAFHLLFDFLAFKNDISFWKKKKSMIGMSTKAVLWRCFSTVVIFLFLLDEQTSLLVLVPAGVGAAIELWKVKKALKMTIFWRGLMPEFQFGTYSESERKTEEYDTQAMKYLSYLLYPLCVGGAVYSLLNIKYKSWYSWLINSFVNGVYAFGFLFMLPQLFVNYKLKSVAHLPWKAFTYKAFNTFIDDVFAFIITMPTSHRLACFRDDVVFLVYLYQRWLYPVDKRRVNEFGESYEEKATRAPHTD

[1] = target: T2, 重组人CRR9蛋白 (human CRR9-TEV-Fc蛋白) (human, UniProt Q96KA5 32-284, biotin-labelled in the capture ELISA and the blocking ELISA (sites not given)); assay: capture ELISA: antibody captured on GAM(Fc), biotinylated human CRR9-TEV-Fc at 0.2 ug/ml, SA-HRP
T2 construct: range 32-284; Made in-house; The order of parts follows the printed name CRR9-TEV-Fc; also called 人CRR9-TEV-Fc; CRR9-生物素; not shown: TEV site; Fc
T2 sequence (looked up): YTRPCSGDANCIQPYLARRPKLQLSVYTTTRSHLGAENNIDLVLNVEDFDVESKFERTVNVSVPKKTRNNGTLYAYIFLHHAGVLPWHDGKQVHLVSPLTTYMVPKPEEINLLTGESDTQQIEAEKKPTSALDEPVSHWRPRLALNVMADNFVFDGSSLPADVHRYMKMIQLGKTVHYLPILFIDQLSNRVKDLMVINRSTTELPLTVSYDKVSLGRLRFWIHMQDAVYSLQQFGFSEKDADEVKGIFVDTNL

- binding result (人CRR9 (表面表达人CRR9的A549细胞)): binds
- binding result [1]: binds
B1: 小鼠抗人CRR9单克隆抗体 A1C3G3B2 (antibody, V domains shown)
VH: QIQLVQSGPELKKPGETVKISCKASGYTFTNYGMSWVRQAPGKGLKWMGWINTNTGEPTYAEEFKGRFAFSLETSASTAYLQINNLKNEDTATYFCSRDYYYGGRGYFDYWGQGTTLTVSS
VL: QIVLTQSPAIMSASPGEKVTMTCSATSIVSYMHWYQQKSGTSPKRWIYDTSKLASGVPARFSGSGSGTSYSLTISSMEAADAATYYCQQWSYNPLTFGSGTKLELK
notes: Mouse monoclonal antibody purified from a hybridoma; also called 抗CRR9单克隆抗体
